The test concerns the target recombinant stabilized SARS-CoV-2 Spike ectodomain (S-6P, HexaPro Spike), his-tagged (SARS-CoV-2, Wuhan-Hu-1 (HexaPro …, stabilised)). In words: SPR.

Results on one molecule are retold here after article PMC8786652 (Cell reports, 2022).

B1: CV3-13 Fab (Fab, V domains shown)
VH: QVQLQQSGPGLVKPSQTLSLTCTVAGGSISSGTYYWSWIRQPAGKGLEWIGRIYTSGSANYNPSLKSRVTISVDTSKNQFSLRLSSVTAEDTAVYYCAREYSSSYYYFYYMDVWGKGTTVTVSS
VL: AIRMTQSPSSLSASVGDRVTITCQASQDISNYLNWYQQKPGKAPKLLIYVASNLETGVPSRFSGSGFGTDFTFTISSLQPEDIATYYCQQFDNLPYTFGQGTKLEIK
As a reminder, the Kd is the constant that tells how readily two partners part at equilibrium. Take B1: the Kd was approximately 55 nM.
